Data: US20230226096A1 (Orna Therapeutics, Inc., priority 2020, published 2023)

test system: HEK293 cells; type: cell-based, human; details: luminescence from secreted Gluc in supernatant 24 hours after transfection of HEK293 cells; circular RNA encoding Gluc with the named IRES (UTR truncated to 675 nt)

Molecule	Expression
Canine picodicistrovirus strain 209 (nucleic acid) DNA: CGCTCTTTATACAAATCTGTCAACCCTTTGTATAACTCTAAGCCGAACAATTATAGCTAGGCTTTTTATTATATAACATTAATTAGGCATTAGCGTTGTCGCCAATCTCTTGGTAATCCTAAGGATACCTTTCCTGTTGACTAAGATGAAGCGCCTTCGGTTACCGATGCCCGGTGTCCACGAAGCCATCGTGGTCGGCCGCGTCCCCCACCTCTCCCAACTTGGACTCCATGTTTTCAGTAGGTGTAATGATTAGTATTATTGATTCTGCTCGTTCAATGTGTTTATCTTCACGATCTGGGACCCAACACATGCTTCACTCATGTTTAAATGTTGGTTCCCTCATTTTGAAGACACCCAAACCATAGAGTGCGAGAATGAGGATTTCTACTTCCATTCTGGTAACAGAAATGAATTCCTGCGTGTGTCTCGTAAATGGAATCTTTAAGAACTTCAGATAAATCGAACAATACACTAATACAAGTTGTTTTCTACCAACATGTTCAATGCGGCTAATCTGACCGTGGAGCTGTGAAGCGCTCAAACCCGAGTGTTGTATACAGTCGTAATGCGTAAGTCCATGAGGAACCGACTACTGTTACCTCTGTTGGTGTGTTTCTCCTTTCCTCTCTTTTATTATTATTTGTTATTGCAAATACTACAACTTTGATCAAC	2.79E+06
Botrytis cinerea mitovirus 4 RdRp (nucleic acid, listed as Mitovirus sp.) DNA: GCCCCGCCGACCTTCCTATTTATTTCTAAATAGGAAGGTCCCGACTAGTCGGATAATTCGGTTTAACGAATTATGGTTAGATCTATTAAAGTTAAAATAGATTGAATTTCTTTCTCATCCTCCTTATTCCTATACTTTGGGAGTAAATGACAAATGTCTATCCTCAAACCGAAATGGCTTAAGTGATGAATTTGAAAGAAAGGTAGGTTTTAAGAATATAAGGCATCAATATATTATACCCTTGAATGTTAAGTGACCACGGCGTGACGATTAGGGCTATCTTAGGATAGACAGCCATCTAACGCGACAGCAGTGGAAATCAGCTTAGCATCTCAAGATCATGTATAATATATACATAACCTTACAATTATAAAACCAAACCAAAACACACTATAATTTTATATAAATTATAGAAGTATCGGACCTGGACGGTACCTACTATTAACTGATAGTAGCCAAATGCAGGAAGCTC	9.68E+04
Canine kobuvirus (nucleic acid, listed as Kobuvirus sp.) DNA: TTTAAGTGTTGTGCCCAATCTCTTGACTCCTGCTGGAACCACCGACCAGTAGTGTCCAAAATGCCAGGTGGAAAATCCTCCCTTCCCCTCTGGGCTTCATGCCCGGCATCCTCCCCCCAGCCTGACGTGCCACAGGCTGTGCAAAGACCCCGCGAAAGCTGCCAAAAGTGGCAATTGTGGGTCCCCCCTTTGTCAAGGCGTCGAGTCTTTCTCCCTTAAGGCTAGTCCTGTCAGTGAACTCTGTCGGGCAACTAGTGACGCCACTGCATGCCTCCGACCTCGGCCGCGGAGTGCTGCCCCCCAAGTCATGCCCCTGACCACAAGTTGTGCTGTCTGGCAAACATTGTCTGTGAGAATGTTCCGCTGTGGCTGCCAAGCCTGGTAACAGGCTGCCCCAGTGTGCGTAATTCTCATCCAGACTTCGGTCTGGCAACTTGCTGTTAAGACATGGCGTAAGGGGCGTGTGCCAACGCCCTGGAACGAGTGTCCACTCTAATACCCCGAGGAATGCTACGCAGGTACCCCTGGCTCGCCAGGGATCTGAGCGTAGGCTAATTGTCTAAGGGTATTTTCATTTCCCACCCTCTTCTTCTTGTTCATA	1.48E+08
Canine distemper virus (nucleic acid, listed as Canine morbillivirus, chemistry not fully specified) DNA: ACCAGACAAAGTTGGCTAAGGATAGTTAAATTATTGAATATTTTATTAAAAACTTAGGGTCAATGATCCTACCTTAAAGAACAAGGCTAGGGTTCAGACCTACCAAT	3.02E+05
Rafivirus WHWGGF74766 (nucleic acid, listed as Rafivirus sp.) DNA: TGCGAATTTATTCGCACAGTCTCTTTTCCCCCATCTTGTGTGTGTGATGGGGTAAGCCGCAGAGTAATACCTACTCTGCTGCAAACACACTCACTCTTTTCTATCTACTTTATATCATGTAATAATAAGTAGGGAACATATTCAATTCATATTGTTCATCTCACTGAACCCGCATGAAGGACTGCATTGCATATCCTGGACGAAGTGACGTGGAATATTTGGACATTTATGGATTGGACACCATTACGCTTTGTGCCTCTACGGAGATGTAACCATAATCTTAAGTAGTAGTACCCCAGCACAAGAGGATAAAGTGGCATACACGACAACGGGTGTTGCTCGCACCTTAGTAATGTGGATGTTCACCCTTGGAGCGTGCTGAAACTCTGTGGGTAAAGACACACATTAGTACAAATGTGGGGGAACTCACTGAAAGGGCATGTCCCGTGTACTGGTGTGCCGGAAAGTGGGGGTCGCTTTCTGGAGAACTTAGTAGTTCTTGTTATTGGGTGATAGCCTTGCGGCGGATCAACTCACAGTTTTAATCCGTTGTTTTGCAT	4.53E+06
Bovine hepacivirus (nucleic acid, listed as Hepacivirus sp.) DNA: CCATCGACACTCCAGGCTCACGGATTAAGTTAGGTTCCGCCGAAGCGGGCTAACCAGGCCCCTAGTAGGAGGCGCCTATCCCGTGAGCCCTTTCCCCACGGATTGAGTGGAGCTGGAGCTGGGAAGGACCGAGTACGGTCCAATCGAGAAGAACCCTGATGAACATTCCAGGCCTCTTCGGTAGATTTGGATATATCCACCAGTGAAGGCGGGGTCGTGGGTACAGGCCCCCTAGTCCACACAGCCTGATAGGGTCCTGCCGCAGGATCCGTGGGTGCGGCTGTACATGTACC	1.89E+05
Bovine nidovirus TCH5 (nucleic acid, listed as Bovine nidovirus) DNA: CACCAATAGATTAGTCAAGCTGTCTATAGGCATAAACTAACCCCCAACCCCATTACCCCGGGGCCAGGTGGGCCGCCGCCTTCGGGCAAACCCGTGCGCTGGTATAATCAAGGTTCACAGCCAGATTCACTGCCGGTTAGCTAGTGGGGCGGTAGCCTGGCAAAACCCGAAGAGGTTGGAAAGGGAACTTCAGGGTAGTTTATCCTAGGCTAGCGTAGCTACAGTTCGGTCAAGATAACCGTCCTGGTGCTAGGGCTAGTAGAGACAGTGGTAACTTGGACAAGGGTCCAGGGCCACTTTAGGGAATACCCTACGGAAGGCTAGGTCCGTAAGGAAGACCCCCGCAGTTGTCCGCGGTTGAGCAGAGCTCCTGCGTAGACAAAAGGCAAAAAGTGGATTACATTCGCCTGCAGGAAAAGGCAAACGTCGTTGGAGTCGGAGCTAAAGTACTGGACGATTGATACCACGCCTGCTGCGGTAGATAAA	1.17E+05
Camel alphacoronavirus (nucleic acid, listed as Alphacoronavirus sp.) DNA: CTTAAGTGTCTTATCTATCTATAGATAGAAAAGTCGCTTTTTAGACTTTGTGTCTACTCTTCTCAACTAAACGAAATTTTTGCTACGGCCGGCATCTCTGATGCTGGAGTCGTGGCGTAATTGAAATTTCATTTGGGTTGCAACAGTTTGGAAATAAGTGCTGTGCGTCCTAGTCTAAGGGTTCTGTGTTCTGTCACGGGATTCCATTCTACAAACGCCTTACTCGAGGTTCTGTCTCGTGTTTGTGTGGAAGCAAAGTTCTGTCTTTGTGGAAACCAGTAACTGTTCCTA	2.48E+05
Botrytis cinerea mitovirus 2 RdRp (nucleic acid, listed as Mitovirus sp.) DNA: GGAACTTTTCAGTTCCAGAAGTGGCTTTATTAAGCCTTCAAAGTTTACACTTTGAACCTGCGATTAATTCCCCATAGTGACTCTTGTTACTGTGAATTAGGAATAGTTGTAGTTCAACTTCTAATGAGGTGAACAATATAATAACTCATCTTATTAACCCTATACGTAGACAATTGTCCAAAGAGACAGTTGGAATTCTGCCAATCTGGAATGTTTGGTACGCGTAGAAGATAATAAGAGACCCTCTATTCCCCTGCCTCATGACTAAGTCATGGCCCGGGGTGTAATAGAGATACTTTTATATATTATACAATC	8.73E+04
